Molecular target: FSH receptor on CHO-FSHR cells (Homo sapiens (Human)) (UniProt P23945)
Assay: cell-based or functional assay

Chain of UniProt P23945 (P23945 18-695 limits assumed, form in doubt): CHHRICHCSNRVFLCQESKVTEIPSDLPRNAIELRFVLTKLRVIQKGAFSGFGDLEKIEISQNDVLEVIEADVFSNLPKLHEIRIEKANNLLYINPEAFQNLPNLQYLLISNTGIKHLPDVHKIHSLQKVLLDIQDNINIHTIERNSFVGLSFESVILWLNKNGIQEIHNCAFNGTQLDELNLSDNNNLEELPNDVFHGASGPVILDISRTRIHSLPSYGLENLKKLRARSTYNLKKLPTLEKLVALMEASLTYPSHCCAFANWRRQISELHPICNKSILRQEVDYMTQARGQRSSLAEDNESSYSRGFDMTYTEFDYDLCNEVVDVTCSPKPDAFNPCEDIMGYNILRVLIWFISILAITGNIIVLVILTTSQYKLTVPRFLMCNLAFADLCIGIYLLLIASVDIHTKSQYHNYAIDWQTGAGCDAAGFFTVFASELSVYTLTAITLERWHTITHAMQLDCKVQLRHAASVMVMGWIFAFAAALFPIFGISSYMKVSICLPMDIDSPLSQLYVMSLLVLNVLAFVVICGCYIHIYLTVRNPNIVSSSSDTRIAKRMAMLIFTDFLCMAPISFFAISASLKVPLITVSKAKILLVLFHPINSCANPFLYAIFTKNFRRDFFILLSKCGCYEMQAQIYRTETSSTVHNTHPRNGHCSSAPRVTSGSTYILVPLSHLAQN

EC50 (ng/ml), cAMP stimulation in CHO-FSHR cells: 4.15 ng/mL
Potency difference, cAMP stimulation in CHO-FSHR cells: 1.3 fold
Vmax (%), cAMP stimulation in CHO-FSHR cells: 99.3%
Vmax (pmol/ml), cAMP stimulation in CHO-FSHR cells: 293 pmol/mL
Substance: Elonva (ligand)

Source: patent US20190127432A1
